Numbering of substitutions follows the chain as printed.
T1: human BDCA2 (human, UniProt Q8WTT0 1-213)
T1 sequence (looked up): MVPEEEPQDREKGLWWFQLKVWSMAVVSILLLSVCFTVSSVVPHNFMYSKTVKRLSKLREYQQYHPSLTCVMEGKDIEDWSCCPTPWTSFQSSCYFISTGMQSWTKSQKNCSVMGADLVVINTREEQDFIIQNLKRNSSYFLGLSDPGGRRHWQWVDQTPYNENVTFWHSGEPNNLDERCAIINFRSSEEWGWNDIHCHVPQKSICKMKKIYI

T2: human FcγRIIA (R167) (human, UniProt P12318 36-218, limits assumed, biotinylated (site not stated))
T2 construct: also called Fe γ RIIA(R167); Fcγ RIJA (R167)
T2 sequence (looked up): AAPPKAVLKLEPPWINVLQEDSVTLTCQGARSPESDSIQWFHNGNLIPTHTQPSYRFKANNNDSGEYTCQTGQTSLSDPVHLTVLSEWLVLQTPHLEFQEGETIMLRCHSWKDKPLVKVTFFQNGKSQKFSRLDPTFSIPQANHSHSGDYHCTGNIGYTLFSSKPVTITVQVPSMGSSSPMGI

T3: cynomolgus BDCA2 (cynomolgus monkey, UniProt A0A2K5UWP4 1-212)
T3 construct: whole, on cells; also called Cyno BDCA2; cynoBDCA2
T3 sequence: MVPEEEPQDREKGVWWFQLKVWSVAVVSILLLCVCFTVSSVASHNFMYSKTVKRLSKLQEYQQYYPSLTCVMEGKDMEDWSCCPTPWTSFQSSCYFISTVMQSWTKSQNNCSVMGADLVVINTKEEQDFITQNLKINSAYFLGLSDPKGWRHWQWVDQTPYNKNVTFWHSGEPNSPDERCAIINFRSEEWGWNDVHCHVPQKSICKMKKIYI

T4: Recombinant Human BDCA2 (human, UniProt Q8WTT0 45-213, limits assumed)
T4 construct: also called hBDCA2 (SPR analyte); human BDCA2 antigen
T4 sequence (looked up): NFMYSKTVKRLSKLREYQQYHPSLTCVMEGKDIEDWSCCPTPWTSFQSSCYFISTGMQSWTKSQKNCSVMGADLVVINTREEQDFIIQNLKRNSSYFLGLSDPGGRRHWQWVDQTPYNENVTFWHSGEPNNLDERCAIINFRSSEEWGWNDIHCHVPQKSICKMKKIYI

T5: human FcγRIIA (H167) (human, UniProt P12318 36-218, limits assumed, biotinylated (site not stated))
T5 construct: also called Fey RIIA (H167)
T5 sequence (looked up): T2 sequence (looked up) with R132H

B1: Hu033-03 (antibody, human IgG1, kappa)
heavy: not shown
light: DIVLTQSPASLAVSPGQRATITCRASESVSFRTSHLMHWYQQKPGQPPKLLIYGASNLESGVPARFSGSGSETDFTLTINPVEAEDTANYFCQQSIEDPPTFGGGTKVEIKRTVAAPSVFIFPPSDEQLKSGTASVVCLLNNFYPREAKVQWKVDNALQSGNSQESVTEQDSKDSTYSLSSTLTLSKADYEKHKVYACEVTHQGLSSPVTKSFNRGEC
notes: Humanized IgG1, wild-type Fc; also called Hu033-03(BM3)
B2: Hu033-20 (antibody, human IgG1, kappa)
heavy: not shown
light: DIVMTQSPDSLAVSLGERATINCRASESVSFRTSHLMHWYQQKPGQPPKLLIYGASNLESGVPDRFSGSGSGTDFTLTISSLQAEDVAVYYCQQSIEDPPTFGGGTKVEIKRTVAAPSVFIFPPSDEQLKSGTASVVCLLNNFYPREAKVQWKVDNALQSGNSQESVTEQDSKDSTYSLSSTLTLSKADYEKHKVYACEVTHQGLSSPVTKSFNRGEC
notes: Humanized IgG1, wild-type Fc; also called Hu033-20(BM3)
B3: Hu033-02 (antibody, IgG1, V domains shown)
VH: EVQLVESGGGLVKPGGSLRLSCAASGFTFSSYGMSWVRQAPGKGLEWVSTISSGDSYTYYPDSVKGRFTISRDNAKNSLYLQMNSLRAEDTAVYYCARQIYYDYAYYFDFWGQGTTVTVSS
VL: DIVLTQSPASLAVSPGQRATITCRASESVSFRTSHLMHWYQQKPGQPPKLLIYGASNLESGVPARFSGSGSETDFTLTINPVEAEDTANYYCQQSIEDPPTFGGGTKVEIK
notes: Humanized IgG1; also called Hu033-02(BM2)
B4: Hu033-04 (antibody, IgG1, V domains shown)
VH: B3 VH
VL: DIVMTQSPDSLAVSLGERATINCRASESVSFRTSHLMHWYQQKPGQPPKLLIYGASNLESGVPDRFSGSGSGTDFTLTISSLQAEDVAVYYCQQSIEDPPTFGGGTKVEIK
notes: Humanized IgG1; also called Hu033-04(BM0)
B5: Hu033-10 (antibody, IgG1, V domains shown)
VH: B3 VH with S30R, G44R
VL: B3 VL
notes: Humanized IgG1; also called Hu033-10(BM4)
B6: Hu033-16 (antibody, IgG1, V domains shown)
VH: B3 VH with S30R, G44R
VL: EIVLTQSPATLSLSPGERATLSCRASESVSFRTSHLMHWYQQKPGQAPRLLIYGASNLESGIPARFSGSGSETDFTLTISRLEPEDFAVYFCQQSIEDPPTFGGGTKVEIK
notes: Humanized IgG1; also called Hu033-16(BM4)
B7: Hu033-23 (antibody, IgG1, V domains shown)
VH: B3 VH with S30R, G44R, R87K
VL: B6 VL with E72G, F91Y
notes: Humanized IgG1; also called Hu033-23(BM3)
B8: Hu033-12 (antibody, IgG1, V domains shown)
VH: B3 VH with S30R, G44R
VL: B4 VL
notes: Humanized IgG1; also called Hu033-12(BM2)
B9: Hu033-13 (antibody, IgG1, V domains shown)
VH: B3 VH with S30R, G44R
VL: B4 VL with M4L, Y91F
notes: Humanized IgG1; also called Hu033-13(BM4)
B10: Hu033-15 (antibody, IgG1, V domains shown)
VH: B3 VH with S30R, G44R
VL: B6 VL with E72G, F91Y
notes: Humanized IgG1; also called Hu033-15(BM2)
B11: Hu033-06 (antibody, IgG1, V domains shown)
VH: B3 VH
VL: B4 VL with M4L, G72E, S81P, Y91F
notes: Humanized IgG1; also called Hu033-06(BM3)
B12: Hu033-08 (antibody, IgG1, V domains shown)
VH: B3 VH
VL: B6 VL
notes: Humanized IgG1; also called Hu033-08(BM2)

These binders were tested against T1, human BDCA2 (assay: cell-based or functional assay).

Row | EC50 (nM), inhibition of CpG-A stimulated IFNα release from human PBMC [nM] | Binder
1 | 0.01 | B1
2 | 0.01 | B2
3 | 0.02 | B3
4 | 0.03 | B4
5 | 0.01 | B5
6 | 0.01 | B6
7 | 0.03 | B7
8 | 0.02 | B8
9 | 0.01 | B9
10 | 0.02 | B10
11 | 0.02 | B11
12 | 0.02 | B12

These binders were tested against T2, human FcγRIIA (R167) (assay: SPR (BIAcore 8K), biotinylated FcγRIIA (R167) on SA chip, antibody as analyte, 1:1 binding).
Protocol: (§1) Antibody kinetics or affinity parameters were measured using BIAcore 8K and freshly fixed biotinylated human Fe γ RIIA(R167)/Fc γ RIIA (H167) SA chips. The experiment was run at 25° C. with a running buffer of 1×HBS-EP+(10 mM HEPES pH 7.4, 150 mM NaCl, 3 mM EDTA, 0.05% Surfactant P20). […] The binding and dissociation times of the antibody were 60 and 90 seconds, respectively. Two zero concentration samples are used to remove background signals. The sample was injected in a multi cycle manner, the analyte can be fully dissociated from the chip surface at the end of each cycle, and no regeneration step was applied. Data analysis was perform using Biacore Insight Evaluation Software (Version 2.0.15.12933). After deducting the reference channel (flow cell 1) and two zero concentration signals, affinity analysis was performed using a 1:1 binding model or steady-state model for curve fitting and calculation of kinetic parameters.

Row | Kd [nM] | koff [s⁻¹] | kon [M⁻¹ s⁻¹] | Binder
13 | 510 | 0.782 | 1.53e+06 | B1
14 | 578 | 0.838 | 1.45e+06 | B2

Each binder was assayed against T3, cynomolgus BDCA2 (assay: FACS, 293F-cynoBDCA2 cells).
Protocol: (§2) The cells were recovered and resuspended to 2×10⁶/mL with FACS buffer (PBS+2% FBS). The resuspended cells were added to 3799 cell plates at 100 μL/well, and the supernatant was discarded after centrifugation at 300 g. […] The cells were incubated at 4° C. for 1 h. The incubated cells were centrifuged at […] for 5 min and washed twice with FACS buffer. 100 μL Goat anti-Human IgG (H+L) Cross-Adsorbed Secondary Antibody, Alexa Fluor 488 (Sigma, A11013; 1:1000) secondary antibody was added, washed twice with FACS buffer after incubation at 4° C. for 1 h. The cells were resuspended with PBS, then the fluorescence signal of antibodies bound to cell surface was analyzed with FACS (BD FACS CantoTM II) instrument and curves were fitted with GraphPad Prism6 to calculate EC₅₀ values for antibodies binding to BDCA2 antigen.

Row | EC50 [nM] | Binder
15 | 1.4 | B1
16 | 1.22 | B2
17 | 1.2 | B3
18 | 1.33 | B4
19 | 1.27 | B5
20 | 1.37 | B6
21 | 1.24 | B7
22 | 1.07 | B8
23 | 1.13 | B9
24 | 1.27 | B10
25 | 1.41 | B11
26 | 1.53 | B12

What follows are binders tested against T1, human BDCA2 (assay: FACS, CHOK1-humanBDCA2 cells).
Protocol: as §2

Row | EC50 [nM] | Binder
27 | 0.5 | B1
28 | 0.64 | B2
29 | 0.44 | B3
30 | 0.61 | B4
31 | 0.51 | B5
32 | 0.63 | B6
33 | 0.79 | B7
34 | 0.45 | B8
35 | 0.68 | B9
36 | 0.76 | B10
37 | 0.62 | B11
38 | 0.62 | B12

What follows are binders tested against T4, Recombinant Human BDCA2 (assay: SPR (BIAcore), antibody captured by anti-human IgG (Fc), hBDCA2 as analyte, 1:1 model).
Protocol: Then 1 M ethanolamine was injected at 10 μL/min flow rate for 420 seconds, and the excess active carboxyl groups on chip were blocked. The humanized antibodies were injected into a detection channel flow cell at flow rate of 10 μL/min for 60 s for capture after diluting to 1 μg/mL using running buffer. […] The sample hBDCA2 to be tested of each concentration gradient was injected into the detection channel at 30 μL/min flow rate, two samples at 0 concentration were used to remove background signal. The binding and dissociation times between antigen and antibody were 180 and 400 sec, respectively. An analysis of data was performed using Biacore Insight Evaluation Software (Version 2.0. 15.12933). A 1:1 binding model was selected for curve fitting and kinetic parameters were calculated after subtraction of signal of the reference channel (flow cell 1) and at 0 concentration.

Row | Kd [nM] | koff [s⁻¹] | kon [M⁻¹ s⁻¹] | Binder
39 | 0.236 | 0.000136 | 576000 | B1
40 | 0.268 | 0.000149 | 556000 | B2
41 | 0.239 | 0.000169 | 707000 | B3
42 | 0.323 | 0.000193 | 598000 | B4
43 | 0.2 | 0.000118 | 589000 | B5
44 | 0.191 | 0.000108 | 569000 | B6
45 | 0.444 | 0.000207 | 466000 | B7
46 | 0.283 | 0.000149 | 527000 | B8
47 | 0.338 | 0.000153 | 454000 | B9
48 | 0.467 | 0.000227 | 487000 | B10
49 | 0.17 | 0.000125 | 733000 | B11
50 | 0.229 | 0.000169 | 740000 | B12

What follows are binders tested against T5, human FcγRIIA (H167) (assay: SPR (BIAcore 8K), biotinylated FcγRIIA (H167) on SA chip, antibody as analyte, 1:1 binding).
Protocol: as §1

Row | Kd [nM] | koff [s⁻¹] | kon [M⁻¹ s⁻¹] | Binder
51 | 941 | 0.339 | 361000 | B1
52 | 981 | 0.431 | 439000 | B2

Source: patent publication US20250346673A1 (DUALITY BIOLOGICS SUZHOU, published 2025)
